Source: patent US20250282851A1

Columns and labels:
[1] = target: purified truncated Gn protein of Rift Valley fever virus (Rift Valley fever virus); experiment: ELISA, truncated Gn coated at 2 ug/mL, 50 uL 293T expression supernatant
[2] = target: Gn protein of Rift Valley fever virus (Rift Valley fever virus)
[3] = target: purified truncated Gn protein of Rift Valley fever virus (Rift Valley fever virus)

B1: monoclonal antibody A38 (antibody, V domains shown)
VH: VQLVQELGPGLVKPSETLSLTCAVSGYSISSPYSWGWIRQPPGKGLEWIGGVYSSGEIRHLDPSLKSRVTLSLDTSKNQFSLKLNSVTAADTAVYFCASANGGVAQDAFDFWGQGLRVTVSS
VL: QPVLTQPPSLSAPPGASARLPCTLSSDLSVTSLNIYWYQQKSGSAPRLFLYYYSDSDKQLGPGVPSRVSGSKETSSNTALLFISGLQPEDEADYYCQVYDSSAYVLFGGGTRLTVLG
With B1 the OD value (OD450 nm-OD630 nm) [1] was 1.4 OD, the Kd [2] was 0.972 nM and the koff [2] was 0.00013 s⁻¹. It also gave a kon [2] of 133000 M⁻¹ s⁻¹ and an EC50 [3] of 4.51 ng/mL.
